From the DeepSol protein solubility set

test: soluble on expression in E. coli; label from the status in PepcDB or PDB records

Sequence | soluble on expression in E. coli
QRISLEIMTLQPRCEDVETAEGVALTVTGVAQVKIMTEKELLAVACEQFLGKNVQDIKNVVLQTLEGHLRSILGTLTVEQIYQDRDQFAKLVREVAAPDVGRMGIEILSFTIKDVYDKVDYLSSLGKTQT | soluble
QRKVSVAGAITTMDPAQLEVPATNIVNTLAGRVAGVIGVQSSGEPGKNISEFWVRGIGTFGANSGALVLIDGLEGSLSQIDAADVESFSVLKDAAATAVYGSRGANGVVLVTTKRGLES | not soluble
QTLRALAERAARIEQDPAAGDYMSALRELPFIRELMAGRLPLQWAPARMVSDDPAKGLGKAPPAGLLTQQLRNILGEPRRTLDLVSPYFVPAEAGTQAFAALARGGAQVRVLTNALEATDVAVVHSGYAKRRKALLQAGVRLYEMRRSYAGPKPQGRGRFGSSGSSLHAKTFGVDGERVFIGSFNFDPRSANLNTELGFVIESPDMARHIAATFDQDIPAATYEVRLDDDGSLYWLE | not soluble
QTTKRIRDQEKATALQTAEMVAEAPMTAAALESGKKQKELQSYTKRVQKITGTEFVVVMDMNGIRKTHPDPSKIGKKFRGGDESEVLKGHVHISTASGTLGKSQRAFVPVYAENGKQVGAVAVGITVNEIDEVISHSLRP | not soluble
QVQLVESGGGLVQPGGSLRLSCATSGFTFTDYYMSWVRQPPGKALEWLGFIRNKANGYTTEYSASVKGRFTISRDNSQSILYLQMNTLRAEDSATYYCARDGSYAMDYWGQGTSVTVSSASTKGPSVFPLAPSSKSTSGGTAALGCLVKDYFPEPVTVSWNSGALTSGVHTFPAVLQSSGLYSLSSVVTVPSSSLGTQTYICNVNHKPSNTKVDKKVEP | soluble
QVTISITEDCPNNCIHCALPDTKNRAKLSPETVRDVIDQVLEMGTTFVIFDGGEPLTYPGLEELISYVDPEKAITGMFTSGVGLTEERARSLKAAGLYSLTVSFDSAYEEKHDYVRGRKGVFKSAVEAVKNGLAAGLLVNIYVVLSRDNVNELDELYNLAAGLGAHELSFYEIVPTGRWMDHASEIMTPKDMRK | not soluble
RAETAVQRTEDRYHNLVDTAPIPILLFDRDWKALYANEAAIAFLDADSFTEIAGKKASDFLHPDERDAARKRFQRLMREGVSVPEREYRVMTAEGEVKTATIATAPGYYRGEQVAQAMV | not soluble
RAKAFIDAANQYSINELYLISHALLETGNGTSALANGLTYNGKTVYNMYGIGAYDSNPNYYGAKYAYEQGWFTPEAAIIGGAKFIGSSYIHNTAYNQDTLYKMRWSATATHQYATDIGWAYKQVNRMYSLYSLLDG | not soluble
RATDPFIVKHPLTGEKTIIAGYPWFSDWGRDVMISFPGLVLIPRRFEDAKSILKNFSSNCRRGLIPNNFPAFGGEPVYNTVDASLWFIHSLSRYFAYTEDLLFLSDIWGTVEDIIDNYSKGTDFGIGMDSDYLIRQGPQLTWMDAKVNDIPVTPRAGKACEINALWYNALRTACRLGDLLGRDTSSYETLAAGVASNFERVFWNPENNCLHDIVSEDKAGNQIKDSSIRPNQIFAVSLPYTMLSPEKEKAIVDRVEKDLLTPFGLRTLSLDDPSYIGLYRGGSESRDSAYHNGTVWPWLLGPYVKAYRKVHNYSKKSLEDMRALLQGFDSHLETAGIGTISEVFDGDFPHSPGGCIAQAWSVAEILRAYVEDVLGIKP | not soluble
REINGATRWIPLGPLNFQPTELFKLAVILYLASLFTRREEVLRSMESLGWQSIWRGTANLIMSATNPQARRETLEMYGRFR | not soluble
REKGIVEPSCGVTANAIMKLFLDKDGFSYCFENEQTLSLEQLQERLSCMPECKSFVLRVNDGALGHAYIVDIPKGENSCRPAFLYQSDLGEGVTRKLRFEDWMTHKALTPILLDDICNYFSCMSQNKTDLEQIATLFDIDGNVKMLRKENIQYQKHDNFSFQLFEYDTDNIEKNIEIIKSLCSGAAALEHHHHHH | soluble
RESITDSRMAYRTISPFLTDLPQEEMWVLLLNQSGKIISMENLSRGGVSETSADVRLIMHKAVSHLASAIILAHNHPSGTVRPSEQDIQLTQRVQKAATLLGFRLNDHLIIGDDGAYFSFADEGLL | not soluble
RGSHHHHHHGSAVQVTFTVQKGSDPKKLVLDIKYTRPGDSLAEVELRQHGSEEWEPLTKKGNVWEVKSSKPLVGPFNFRFMSKGGMRNVFDEVIPTAFSIGKTYKPEE | soluble
RHAGVVTAVERHGESLLEVTCRLQGDWSHRAGQFAFLTCDRLEGAHPFTIASADRGCGEVRFSIKALGDYTRRLQDNLEVGARVEVEGPYGCFDFRRGLAGRQVWVAAGIGVTPFIAWLESLQAAPESAPSVELHYCVRNSQEALFAGRLRELCEH | not soluble
RHVTGVHSPTKPASYSVKWTIEEKELFEQGLAKFGRRWTKISKLIGSRTVLQVKSYARQYFKNKVKCGLDKETPNQKTGHNLQVKNEDKGTKAWTPSCLRGRADPNLNAVKIEKLSDDEEVDITDEVDELSSQTPQKNSSSDLLLDFPNSKMHETNQGEFIASDSQEALFSKSSRGCLQNEKQDETLSSSEITLWTEKQSNGDKKSIELNDQKFNELIKNCNKHDGRGIIVDARQLPSPEPCEIQKNLNDNEMLFHSCQMVEESHEEEELKPPEQEIEIDRNIIQEEEKQAIPEFFEGRQAKTPERYLKIRNYILDQWEICKPKYLNKTSVRPGLKNCGDVNCIGRIHTYLELIGAINFGCEQAVYNRPQTVDKVRIRDRKDAVEAYQLAQRLQSMRTRRRRVRDPWGNWCDAKDLEGQTFEHLSAEELAKRREEEKGRPVKSLKVPRPTKSSFDPFQLIPCNFFSEEKQEPFQVKVASEALLIMDLHAHVSMAEVIGLLGGRYSEVDKVVEVCAAEPCNSLSTGLQCEMDPVSQTQASETLAVRGFSVIGWYHSHPAFDPNPSLRDIDTQAKYQSYFSRGGAKFIGMIVSPYNRNNPLPYSQITCLVISEEISPDGSYRLPYKFEVQQMLEEPQWGLVFEKTRWIIEKYRLSHSSVPMDKIFRRDSDLTCLQKLLECMRKTLSKVTNCFMAEEFLTEIENLFLSNYKSNQENGVTEENCTKELLM | soluble
RKPSFLALPGHLVKSEETVILQCWSDVMFEHFLLHREGKFNNTLHLIGEHHDGVSKANFSIGPMMPVLAGTYRCYGSVPHSPYQLSAPSDPLDMVIIGLYEKPSLSAQPGPTVQAGENVTLSCSSRSSYDMYHLSREGEAHERRLPAVRSINGTFQADFPLGPATHGGTYRCFGSFRDAPYEWSNSSDPLLVSVT | soluble
RKPTALIILDGFGLREETYGNAVAQAKKPNFDGYWNKFPHTTLTACGEAVGLPEGQMGNSEVGHLNIGAGRIVYQSLTRVNVAIREGEFDKNETFQSAIKSVKEKGTALHLFGLLSDGGVHSHMNHMFALLRLAAKEGVEKVYIHAFLDGRDVGPKTAQSYIDATNEVIKETGVGQFATISGRYYSMDRDKRWDRVEKCYRAMVNGEGPTYKSAEECVEDSYANGIYDEFVLPSVIVNEDNTPVATINDDDAVIFYNFRPDRAIQIARVFTNGDFREFDRGEKVPHIPEFVCMTHFSETVDGYVAFKPMNLDNTLGEVVAQAGLKQLRIAETEKYPHVTFFFSGGREAEFPGEERILINSPKVATYDLKPEMSIYEVTDALVNEIENDKHDVIILNFANCDMVGHSGMMEPTIKAVEATDECLGKVVEAILAKDGVALITADHGNADEELTSEGEPMTAHTTNPVPFIVTKNDVELREDGILGDIAPTMLTLLGVEQPKEMTGKTIIK | soluble
RKRYYNTIEDMKGKIRVYCRIRPLNEKESSEREKQMLTTVDEFTVEHPWKDDKRKQHIYDRVFDMRASQDDIFEDTKYLVQSAVDGYNVCIFAYGQTGSGKTFTIYGHESNPGLTPRATKELFNILKRDSKRFSFSLKAYMVELYQDTLVDLLLPKSARRLKLEIKKDSKGMVFVENVTTIPISTLEELRMILERGSERRHVSGTNMNEESSRSHLILSVVIESIDLQTQSAARGKLSFVDLAGSERVKKSGSAGNQLKEAQSINKSLSALGDVIGALSSGNQHIPYRNHKLTMLMSDSLGGNAKTLMFVNVSPAESNLDETYNSLLYASRVRTIVNDPSKHISSKEMVRLKKLVAYWKEQAGKKGEEEDLVDIEEDRTRKDEADS | soluble
RMALDEVWDSSHFALQPGRAEDGPGASLALRILAARLPDSGVYVCHARNAHGHAQAGALLQVHQPPESPPADPDEAPAPVVEPLKCAPKTFWVNEGKHAKFRCYVMGKPEPEIEWHWEGRPLLPDRRRLMYRDRDGGFVLKVLYCQAKDRGLYVCAARNSAGQTLSAVQLHVKEPRLRFTRPLQDVEGREHGIAVLECKVPNSRIPTAWFREDQRLLPCRKYEQIEEGTVRRLIIHRLKADDDGIYLCEMRGRVRTVANVTVKGPILKRLPRKLDVLEGENAVLLVETLEAGVEGRWSRDGEELPVICQSSSGHMHALVLPGVTREDAGEVTFSLGNSRTTTLLRVKCVKHSPPGPPILAEMFKGHKNTVLLTWKPPEPAPETPFIYRLERQEVGSEDWIQCFSIEKAGAVEVPGDCVPSEGDYRFRICTVSGHGRSPHVVFHGSAHLVPTARLVAGLEDVQVYDGEDAVFSLDLSTIIQGTWFLNGEELKSNEPEGQVEPGALRYRIEQKGLQHRLILHAVKHQDSGALVGFSCPGVQDSAALTIQESPVHILSPQDKVSLTFTTSERVVLTCELSRVDFPATWYKDGQKVEESELLVVKMDGRKHRLILPEAKVQDSGEFECRTEGVSAFFGVTVQDPPVHIVDPREHVFVHAITSECVMLACEVDREDAPVRWYKDGQEVEESDFVVLENEGPHRRLVLPATQPSDGGEFQCVAGDECAYFTVTITDVSSWIVYPSGKVYVAAVRLERVVLTCELCRPWAEVRWTKDGEEVVESPALLLQKEDTVRRLVLPAVQLEDSGEYLCEIDDESASFTVTVTEPPVRIIYPRDEVTLIAVTLECVVLMCELSREDAPVRWYKDGLEVEESEALVLERDGPRCRLVLPAAQPEDGGEFVCDAGDDSAFFTVTVTEPPVQFLALETTPSPLCVAPGEPVVLSCELSRAGAPVVWSHNGRPVQEGEGLELHAEGPRRVLCIQAAGPAHAGLYTCQSGAAPGAPSLSFTVQVAEPPVRVVAPEAAQTRVRSTPGGDLELVVHLSGPGGPVRWYKDGERLASQGRVQLEQAGARQVLRVQGARSGDAGEYLCDAPQDSRIFLVSVEEPLLVKLVSDLTPLTVHEGDDATFRCEVSPPDADVTWLRNGAVVTPGPQRQSCCSYGGCRMCGQRKARTCVSKWRQAEWVQRGPCAGCEVGSPCPTTLACPWPRMGTSTASSSMVSYWPTRAPTAARATTIAPWPGSA | soluble
